Measured values from US10800847.

Key:
HLA-B*1801 (B18) (human) = assay: iBead MFI against regular-bead MFI, IVIg diluted 1:8
HLA-B*0702 (B7) (human) = assay: as above
HLA-B*1501 (B62) (human) = assay: as above
HLA-B*1511 (B75) (human) = assay: as above
HLA-B*0801 (B8) (human) = assay: as above
HLA-B*1512 (B76) (human) = assay: as above
HLA-B*1503 (B72) (human) = assay: as above
[1] = target: HLA-Cw*1402 (Cw14) (human); assay: Luminex, iBead vs regular bead MFI, 1:8
[2] = target: HLA-Cw*0303 (Cw9) (human); assay: Luminex, iBead vs regular bead MFI, 1:8
HLA-B*8201 (B82) (human) = assay: Luminex, iBead vs regular bead MFI, 1:8
[3] = target: Albumin (negative control beads) (human or bovine); assay: Luminex, iBead vs regular bead MFI, 1:8
[4] = target: HLA-Cw*1701 (Cw17) (human); assay: Luminex, iBead vs regular bead MFI, 1:8
[5] = target: HLA-Cw*0702 (Cw7) (human); assay: Luminex, iBead vs regular bead MFI, 1:8
[6] = target: HLA-Cw*0304 (Cw10) (human); assay: Luminex, iBead vs regular bead MFI, 1:8
[7] = target: HLA-Cw*0202 (Cw2) (human); assay: Luminex, iBead vs regular bead MFI, 1:8
[8] = target: HLA-Cw*1601 (Cw16) (human); assay: Luminex, iBead vs regular bead MFI, 1:8
[9] = target: HLA-Cw*0401 (Cw4) (human); assay: Luminex, iBead vs regular bead MFI, 1:8
[10] = target: HLA-Cw*0801 (Cw8) (human); assay: Luminex, iBead vs regular bead MFI, 1:8
[11] = target: HLA-Cw*1802 (Cw18) (human); assay: Luminex, iBead vs regular bead MFI, 1:8
[12] = target: HLA-Cw*1203 (Cw12) (human); assay: Luminex, iBead vs regular bead MFI, 1:8
[13] = target: HLA-Cw*0501 (Cw5) (human); assay: Luminex, iBead vs regular bead MFI, 1:8
[14] = target: HLA-Cw*0102 (Cw1) (human); assay: Luminex, iBead vs regular bead MFI, 1:8
[15] = target: HLA-Cw*1502 (Cw15) (human); assay: Luminex, iBead vs regular bead MFI, 1:8
[16] = target: HLA-A*3101 (A31) single antigen on beads (human); assay: Luminex, iBead vs regular bead, IVIg 1:8
[17] = target: HLA-A*3301 (A33) single antigen on beads (human); assay: Luminex, iBead vs regular bead, IVIg 1:8
[18] = target: HLA-A*3001 (A30) single antigen on beads (human); assay: Luminex, iBead vs regular bead, IVIg 1:8
[19] = target: HLA-A*2902 (A29) single antigen on beads (human); assay: Luminex, iBead vs regular bead, IVIg 1:8
[20] = target: HLA-A*3401 (A34) single antigen on beads (human); assay: Luminex, iBead vs regular bead, IVIg 1:8
[21] = target: HLA-A*6601 (A66) single antigen on beads (human); assay: Luminex, iBead vs regular bead, IVIg 1:8
[22] = target: HLA-A*3303 (A33) single antigen on beads (human); assay: Luminex, iBead vs regular bead, IVIg 1:8
[23] = target: HLA-A*6801 (A68) single antigen on beads (human); assay: Luminex, iBead vs regular bead, IVIg 1:8
[24] = target: HLA-A*3402 (A34) single antigen on beads (human); assay: Luminex, iBead vs regular bead, IVIg 1:8
[25] = target: HLA-A*3601 (A36) single antigen on beads (human); assay: Luminex, iBead vs regular bead, IVIg 1:8
[26] = target: HLA-A*6802 (A68) single antigen on Luminex beads (human); assay: Luminex single antigen bead assay, iBeads (#6), IVIg 1:8
[27] = target: HLA-A*8001 (A80) single antigen on Luminex beads (human); assay: as above
[28] = target: HLA-A*6901 (A69) single antigen on Luminex beads (human); assay: as above
HLA-B*1502 (B75) (human) = assay: iBead MFI against regular-bead MFI, IVIg diluted 1:8
[29] = target: HLA-Cw*0602 (Cw6) (human); assay: Luminex, iBead vs regular bead MFI, 1:8
[30] = target: HLA-Cw*0302 (Cw10) (human); assay: Luminex, iBead vs regular bead MFI, 1:8
[31] = target: HLA-A*7401 (A74) single antigen on Luminex beads (human); assay: Luminex single antigen bead assay, regular beads (#7), IVIg 1:8
[32] = target: HLA-A*8001 (A80) single antigen on Luminex beads (human); assay: as above
[33] = target: HLA-A*6901 (A69) single antigen on Luminex beads (human); assay: as above
[34] = target: HLA-A*8001 (A80) single antigen on Luminex beads (human); assay: Luminex single antigen bead assay, iBeads vs regular beads, IVIg 1:8
[35] = target: HLA-A*6901 (A69) single antigen on Luminex beads (human); assay: as above

Row | Difference % (iBead vs regular bead) (HLA-B*1801 (B18) (human)) [%] | Difference % (iBead vs regular bead) (HLA-B*0702 (B7) (human)) [%] | Difference % (iBead vs regular bead) (HLA-B*1511 (B75) (human)) [%] | Difference % (iBead vs regular bead) (HLA-B*0801 (B8) (human)) [%] | Difference % (iBead vs regular bead) (HLA-B*1512 (B76) (human)) [%] | Difference % (iBead vs regular bead) (HLA-B*1503 (B72) (human)) [%] | Difference % [1] [%] | Difference % [2] [%] | Difference % (HLA-B*8201 (B82) (human)) [%] | Difference % [4] [%] | Difference % [5] [%] | Difference % [6] [%] | Difference % [7] [%] | Difference % [8] [%] | Difference % [9] [%] | Difference % [10] [%] | Difference % [11] [%] | Difference % [12] [%] | Difference % [13] [%] | Difference % [14] [%] | Substance | further results
1 | 0 | -10 | -16 | -63 | 125 | -100 | -57 | -9 | 10 | 22 | -54 | -26 | 13 | -45 | -20 | -32 | -2 | -54 | -9 | -38 | IVIg GamaSTAN S/D (Talecris Biotherapeutics, USA) (antibody) | Difference % (iBead vs regular bead) (HLA-B*1501 (B62) (human)): 270%; Difference % [3]: 33%; Difference % [15]: 24%; Difference % (iBead MFI vs regular bead MFI) [16]: 189%; Difference % (iBead MFI vs regular bead MFI) [17]: 68%; Difference % (iBead MFI vs regular bead MFI) [18]: -32%; Difference % (iBead MFI vs regular bead MFI) [19]: 348%; Difference % (iBead MFI vs regular bead MFI) [20]: 42%; Difference % (iBead MFI vs regular bead MFI) [21]: 86%; Difference % (iBead MFI vs regular bead MFI) [22]: 125%; Difference % (iBead MFI vs regular bead MFI) [23]: 230%; Difference % (iBead MFI vs regular bead MFI) [24]: 76%; Difference % (iBead MFI vs regular bead MFI) [25]: 145%
2 | 112 | 39 | -17 | -31 | 244 | -79 | -45 | 1 | -55 | -6 | -54 | -28 | -32 | -52 | -51 | -40 | -58 | -32 | -47 | -2 | IVIg Gamunex-C Lot NKLG1 (antibody) | MFI [26]: 4660 MFI; MFI [27]: 3970 MFI; MFI [28]: 6240 MFI; Difference % (iBead vs regular bead) (HLA-B*1502 (B75) (human)): 32%; Difference % [29]: -65%; Difference % [30]: -2%; MFI [31]: 666 MFI; MFI [32]: 3190 MFI; MFI [33]: 2810 MFI; Difference % (iBead MFI against regular bead MFI) [34]: 24%; Difference % (iBead MFI against regular bead MFI) [35]: 122%; Difference % (iBead MFI vs regular bead MFI) [16]: 1960%; Difference % (iBead MFI vs regular bead MFI) [17]: 163%; Difference % (iBead MFI vs regular bead MFI) [18]: 112%; Difference % (iBead MFI vs regular bead MFI) [19]: 243%; Difference % (iBead MFI vs regular bead MFI) [20]: 47%; Difference % (iBead MFI vs regular bead MFI) [21]: 722%; Difference % (iBead MFI vs regular bead MFI) [22]: 599%
